In the supplement of paper PMC7877785:
± gives the uncertainty stated by the source.

Assay: self-splicing fitness, log relative to wild type (ln ratio); higher = more splicing; Tetrahymena group I intron in knt gene, E. coli kanamycin selection, DiMSum; sequences stand for … in CUCUCU…GGAGGGAAAAGUUAUCAGGCAUGCACCUGGUAGCUAGUCUUUAAACCAAUAGAUUGCAUCGGUUUAAAAGGCAAGACCGUCAAAUUGCGGGAAAGGGGUCAACAGCCGUUCAGUACCAAGUCUCAGGGGAAACUUUGAGAUGGCCUUGCAAAGGGUAUGGUAAUAAGCUGACGGACAUGGUCCUAACCACGCAGCCAAGUCCUAAGUCAACAGAUCUUCUGUUGAUAUGGAUGCAGUUCACAGACUAAAUGUCGGUCGGGGAAGAUGUAUUCUUCUCAUAAGAUAUAGUCGGACCUCUCCUUAAUGGGAGCUAGCGGAUGAAGUGAUGCAACACUGGAGCCGCUGGGAACUAAUUUGUAUGCGAAAGUAUAUUGAUUAGUUUUGGAGUACUCGUGGUCG
Outline: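 Six replicate transformations of E. coli BL21(DE3) with a pET-22b(+) library were grown overnight at 37°C or 30°C. The library randomised all eight P1ex-region intron nucleotides, the intron lying in the knt kanamycin-resistance gene, and plates were LB agar with or without 25 μg/mL kanamycin plus 100 μg/mL carbenicillin, 50 μM IPTG and 0.2% rhamnose. Pooled colonies were amplicon-sequenced on an Illumina HiSeq 2500, and fitness is the DiMSum error-weighted combination of wild-type-normalised replicate fold changes, kanamycin versus none.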

Sequence | self-splicing fitness (ln) (30 °C) | self-splicing fitness (ln) (37 °C)
GUCUAGCAAUAUUACGUAAU | -0.317 ± 0.1 | 0.597 ± 0.12
GCGGAGCAAUAUUACGUGUC | -2.84 ± 0.3 | -1.06 ± 0.43
UCCUAGCAAUAUUACGUAUU | -4.31 ± 0.2 | -2.48 ± 0.22
AGGCAGCAAUAUUACGUCGC | -2.48 ± 0.12 | -2.07 ± 0.14
GAAGAGCAAUAUUACGAGUU | -2.61 ± 0.16 | -2.03 ± 0.21
ACCCAGCAAUAUUACGUUUA | -1.57 ± 0.066 | -1.01 ± 0.072
CCAAAGCAAUAUUACGCUUA | -3.86 ± 0.24 | -3.12 ± 0.22
CCAGAGCAAUAUUACGUUUA | -3.95 ± 0.29 | -1.78 ± 0.2
GUCGAGCAAUAUUACGGAGU | -3.59 ± 0.19 | -0.791 ± 0.094
GCUCAGCAAUAUUACGUUAA | -1.32 ± 0.17 | -1.28 ± 0.16
GCAGAGCAAUAUUACGAUUC | -2.56 ± 0.26 | -0.2 ± 0.22
GAGAAGCAAUAUUACGUUAA | -2.68 ± 0.2 | -2.18 ± 0.24
GGGGAGCAAUAUUACGUAUU | – | -3.33 ± 0.42
CCAUAGCAAUAUUACGGCAG | -2.02 ± 0.14 | -1.34 ± 0.17
UCGUAGCAAUAUUACGAAUU | -3.74 ± 0.29 | -3.57 ± 0.46
AGAAAGCAAUAUUACGCACA | -0.139 ± 0.1 | -0.236 ± 0.12
AAUGAGCAAUAUUACGUUUC | -4.31 ± 0.24 | -2.98 ± 0.25
UUUAAGCAAUAUUACGUUCG | -0.639 ± 0.093 | -0.169 ± 0.12
GGACAGCAAUAUUACGGCUG | -3.23 ± 0.31 | -0.371 ± 0.18
AUUUAGCAAUAUUACGCCAG | -2.27 ± 0.27 | –
UAUUAGCAAUAUUACGGCAU | -1.99 ± 0.16 | -0.541 ± 0.12

Sequence | self-splicing fitness (ln) (30 °C) | self-splicing fitness (ln) (37 °C)
UCAUAGCAAUAUUACGUUGC | -3.86 ± 0.31 | -2.31 ± 0.32
CUCUAGCAAUAUUACGGUAC | -2.88 ± 0.39 | -4.12 ± 0.46
CCACAGCAAUAUUACGAAUU | -3.64 ± 0.18 | -2.39 ± 0.17
CGUUAGCAAUAUUACGGUAU | -3.23 ± 0.22 | -2.2 ± 0.22
GUUCAGCAAUAUUACGGGCU | – | -1.56 ± 0.28
CCCGAGCAAUAUUACGGAUG | -1.67 ± 0.091 | -1.35 ± 0.13
GUCAAGCAAUAUUACGCUAG | -2.83 ± 0.15 | -2 ± 0.14
GUGUAGCAAUAUUACGAGAG | – | -1.52 ± 0.47
CUAUAGCAAUAUUACGCAAC | – | -2.26 ± 0.35
ACUCAGCAAUAUUACGGUAA | -1.66 ± 0.092 | -0.871 ± 0.081
GCGCAGCAAUAUUACGGACU | -0.744 ± 0.12 | -0.35 ± 0.12
GUUUAGCAAUAUUACGUGUG | -2.08 ± 0.11 | -1.36 ± 0.11
UAUUAGCAAUAUUACGUCCU | -1.69 ± 0.2 | -0.635 ± 0.21
AGAGAGCAAUAUUACGCUCU | -2.47 ± 0.47 | –
AGGUAGCAAUAUUACGACUU | -0.167 ± 0.014 | -0.0309 ± 0.034
UAUUAGCAAUAUUACGUUGC | -3.57 ± 0.31 | -2.59 ± 0.25
AUGAAGCAAUAUUACGAUCA | -0.14 ± 0.081 | 0.405 ± 0.11
ACUAAGCAAUAUUACGACCG | -0.45 ± 0.17 | 0.0545 ± 0.21
GCAGAGCAAUAUUACGGGUU | -3.83 ± 0.3 | -2.6 ± 0.3
GACAAGCAAUAUUACGCCUC | -2.68 ± 0.14 | -2.78 ± 0.28
CCCUAGCAAUAUUACGGUGC | -3.43 ± 0.12 | -2.88 ± 0.17

Sequence | self-splicing fitness (ln) (30 °C) | self-splicing fitness (ln) (37 °C)
AGCCAGCAAUAUUACGUUGU | -3.58 ± 0.21 | -2.01 ± 0.15
CAACAGCAAUAUUACGAAGU | – | -1.78 ± 0.16
CCCCAGCAAUAUUACGGGUC | -2.82 ± 0.11 | -2.43 ± 0.16
GACAAGCAAUAUUACGGGUG | -0.472 ± 0.065 | -0.733 ± 0.081
UGUAAGCAAUAUUACGUCCG | -0.161 ± 0.12 | 0.473 ± 0.12
AGCUAGCAAUAUUACGUUUA | -2.69 ± 0.14 | -1.46 ± 0.098
CCAUAGCAAUAUUACGUGGU | -4 ± 0.23 | -1.73 ± 0.13
AACUAGCAAUAUUACGUCAA | -2.66 ± 0.18 | -2.13 ± 0.15
ACGGAGCAAUAUUACGUGAG | -3.06 ± 0.28 | -1.15 ± 0.19
AUGAAGCAAUAUUACGGCAU | -0.0745 ± 0.047 | 0.444 ± 0.063
UAAUAGCAAUAUUACGUCCU | -0.907 ± 0.19 | -0.798 ± 0.23
ACAGAGCAAUAUUACGAUGC | -2.74 ± 0.14 | -2.47 ± 0.29
CACUAGCAAUAUUACGACUA | -2.82 ± 0.23 | -1.43 ± 0.2
CAGUAGCAAUAUUACGAAGU | -0.925 ± 0.18 | -1.82 ± 0.27
UCGGAGCAAUAUUACGAUUA | – | 0.203 ± 0.28
AUCUAGCAAUAUUACGGCAU | 0.455 ± 0.096 | 0.24 ± 0.1
GCAUAGCAAUAUUACGUCUU | -1.46 ± 0.1 | -0.342 ± 0.11
CUGUAGCAAUAUUACGCGAU | -4.41 ± 0.32 | -2.87 ± 0.28
ACCUAGCAAUAUUACGCUAC | -2.93 ± 0.13 | -2.02 ± 0.15
ACUCAGCAAUAUUACGUGCA | -0.681 ± 0.095 | -0.372 ± 0.11
